Literature values as cited in patent publication US20240293553A1, “P-SELECTIN INHIBITORS AND USES THEREOF” (Beth Israel Deaconess Medical Center, Inc., priority 2021, published 2024).
Values joined by “and” are separate entries in the source; they are usually repeats but may differ in a detail not shown here. Equal entries are not always repeated.

T1: P-selectin (Homo sapiens, UniProt P16109)
T1 sequence (P16109 42-830): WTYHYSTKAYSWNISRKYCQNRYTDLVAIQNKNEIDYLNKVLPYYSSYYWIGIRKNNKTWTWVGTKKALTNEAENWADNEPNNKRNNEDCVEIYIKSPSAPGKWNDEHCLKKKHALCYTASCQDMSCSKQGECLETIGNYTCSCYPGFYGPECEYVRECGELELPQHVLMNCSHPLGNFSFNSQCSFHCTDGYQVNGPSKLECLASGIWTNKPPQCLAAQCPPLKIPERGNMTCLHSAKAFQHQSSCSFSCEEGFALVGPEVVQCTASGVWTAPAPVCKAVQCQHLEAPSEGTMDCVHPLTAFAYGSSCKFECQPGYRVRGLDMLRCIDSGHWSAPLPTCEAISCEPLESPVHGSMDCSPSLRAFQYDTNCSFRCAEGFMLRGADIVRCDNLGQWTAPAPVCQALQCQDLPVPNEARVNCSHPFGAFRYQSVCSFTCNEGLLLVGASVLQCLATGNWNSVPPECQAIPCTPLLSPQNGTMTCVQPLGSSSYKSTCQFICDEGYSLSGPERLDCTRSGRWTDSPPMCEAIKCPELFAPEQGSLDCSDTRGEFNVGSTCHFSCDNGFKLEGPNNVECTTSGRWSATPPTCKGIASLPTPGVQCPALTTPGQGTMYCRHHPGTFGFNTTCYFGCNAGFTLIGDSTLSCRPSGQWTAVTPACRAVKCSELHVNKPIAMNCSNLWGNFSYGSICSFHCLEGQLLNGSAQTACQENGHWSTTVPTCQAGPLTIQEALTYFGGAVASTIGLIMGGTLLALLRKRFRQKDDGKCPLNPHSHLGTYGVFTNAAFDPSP


How the values were obtained:
P-selectin = biological target: T1, P-selectin; conditions: reported values
[1] = literature values

Kd (P-selectin) | Molecule | t1/2 [1] [days]
73 nM and 70 to 300 nM | PSGL-1: P-selectin glycoprotein ligand-1, glycoprotein expressed on the surface of all leukocytes; native ligand of P-selectin (protein, UniProt Q14242 42-412, looked up) P-selectin glycoprotein …: QATEYEYLDYDFLPETEPPEMLRNSTDTTPLTGPGTPESTTVEPAARRSTGLDAGGAVTELTTELANMGNLSTDSAAMEIQTTQPAATEAQTTQPVPTEAQTTPLAATEAQTTRLTATEAQTTPLAATEAQTTPPAATEAQTTQPTGLEAQTTAPAAMEAQTTAPAAMEAQTTPPAAMEAQTTQTTAMEAQTTAPEATEAQTTQPTATEAQTTPLAAMEALSTEPSATEALSMEPTTKRGLFIPFSVSSVTHKGIPMAASNLSVNYPVGAPDHISVKQCLLAILILALVATIFFVCTVVLAVRLSRKGHMYPVRNYSPTEMVCISSLLPDGGEGPSATANGGLSKAKSPGLTPEPREDREGDDLTLHSFLP | 
 | crizanlizumab: anti-P-selectin mAb approved for the treatment of sickle cell disease (antibody, chains of the INN, looked up, V domains shown) VH: QVQLVQSGAEVKKPGASVKVSCKVSGYTFTSYDINWVRQAPGKGLEWMGWIYPGDGSIKYNEKFKGRVTMTVDKSTDTAYMELSSLRSEDTAVYYCARRGEYGNYEGAMDYWGQGTLVTVSS VL: DIQMTQSPSSLSASVGDRVTITCKASQSVDYDGHSYMNWYQQKPGKAPKLLIYAASNLESGVPSRFSGSGSGTDFTLTISSLQPEDFATYYCQQSDENPLTFGGGTKVEIK | 10.6
